Results as given in PMC6668441, “Comparative Study of Subcutaneous and Orthotopic Mouse Models of Prostate Cancer: Vascular Perfusion, Vasculature Density, Hypoxic Burden and BB2r-Targeting Efficacy” (Scientific Reports, 2019).

Experiments:
[1] = test system: orthotopic PC-3 xenografts; test: Biodistribution, BB2r-targeted uptake, orthotopic PC-3 xenograft model
Experimental: (§1) For the subcutaneous model, 5-week old female SCID mice were inoculated in the flanks with 5 × 10^6 PC-3 cells (American Type Culture Collection (ATCC), VA) in Matrigel®. The tumor size was monitored by caliper. For the generation of the orthotopic model, the PC-3-Luc cells were selected by 0.5 µg/mL puromycin twice before inoculation. The male 6-weeks SCID mice were anesthetized, the muscles of the abdomen area were cut after retracting the skin, and the prostate gland exposed. 50 μL of PC-3-Luc cell suspension at 0.5 × 10^6/mL in Matrigel® was injected into a dorsal prostatic lobe. The wound was closed in two layers and the skin was clipped. Animals were given analgesic drugs for 3 days and the tumors were monitored by an IVIS optical imaging system.
(§2) The mice were injected, monitored and dissected in the lab with the temperature of 23 °C and 17% relative humidity. All animals were awake until sacrifice. The body weight, tumor volume and tumor luminescence of the mice were recorded every three days. At four-to-seven weeks post-xenograft implantation, the mice were divided into three groups by tumor volume: <300, 300–700 and >700 mm^3 in both animal models. […] Each mouse (average weight: 20 g for female mice and 25 g for male mice) was treated with pimonidazole solution (80 mg/kg in PBS) via intraperitoneal injection. […] After an additional 1 h, the mice were injected intravenously with a PBS solution containing 10 µCi (370 kBq) of [^99mTc]NaTcO4 and 15 mg/kg Hoechst 33342. The animals were sacrificed 5 minutes later, and their tissues collected. The excised tissues were weighed, the radioactivity for each tissue was measured by γ-counter and the percentage injected dose per gram (%ID/g) was calculated for each tissue. […]
(§3) Establishment of Stably Transfected PC-3-Luc Cells
(§4) To generate the PC-3-Luc cells, we utilized pre-made lentivirus particles encoding luciferase and GFP (EF1a-Luciferase (firefly)-2A-GFP (Puro), AMSBIO) for transfection. Briefly, normal PC-3 cells were seeded in a 24-well plate using 0.5 mL of medium containing 0.5 × 10^5 cells/mL and incubated overnight. The medium was removed and replaced with 0.5 mL of fresh medium pre-mixed with 2.5 ȝL TransduxTM. To each well was added 2 ȝL of the lentivirus particle solution and swirled to mix. The plate was returned to the incubator and cultured for 3 days. Once the cells grew to confluence, they were harvested and transferred to larger plates (from 6-well plates to 60 mm dishes). 1.5 mL of suspended cells in PBS at a concentration of 5 × 10^6/mL was sorted by the FACS method to give the GFP positive (PC-3-Luc) cells that were returned to culture for in vitro and in vivo studies.
(§5) The normal PC-3 cells and PC-3-Luc were cultured in our laboratory, as per ATCC protocols, in Ham’s F-12K medium containing 10% FBS, 2.5 mM L-glutamine, 15 mM HEPES and 0.5 mM sodium pyruvate. Cells were incubated at 37 °C […]
(§6) All animal experiments were performed in accordance with the NIH animal use guideline and protocol approved by the […]

[2] = as above; conditions: male, NOD SCID, mouse, iv, total radioactivity, orthotopic model, 10 µCi i.v., 1 h 5 min p.i., mean ± SD; for dose excreted at 65 min: urine and faeces, excretion (urine and fecal material)
Experimental: as §1, §2, §3, §4, §5, §6

For `CSCC[C@H](NC(=O)[C@H](CC(C)C)NC(=O)[C@H](Cc1c[nH]cn1)NC(=O)CNC(=O)[C@@H](NC(=O)[C@H](C)NC(=O)[C@H](Cc1c[nH]c2ccccc12)NC(=O)[C@H](CCC(N)=O)NC(=O)CCOCCOCCOCCOCCNC(=O)[C@@H](CO)NC(=O)[C@@H](CO)NC(=O)[C@@H](CO)NC(=O)[C@@H](CO)NC(=O)[C@@H](CO)NC(=O)CN1CCN(CC(=O)O)CCN(CC(=O)O)CCN(CC(=O)O)CC1)C(C)C)C(N)=O` [[^177Lu]Lu-DOTA-SP714, metal not drawn], the “blood retention values between the two models” value ([1]; orthotopic versus subcutaneous) was “not statistically different”, the “average tumor uptake, orthotopic versus subcutaneous model” value ([1]; tumor volume 300–700 mm^3, p = 0.011) was 1.6 fold and the “average tumor uptake, orthotopic versus subcutaneous model” value ([1]; tumor volume <300 mm^3, p = 0.0055) was 1.9 fold. The “average tumor uptake, orthotopic versus subcutaneous model” value ([1]; tumor volume >700 mm^3, p = 0.34) was 1.2 fold, the tissue uptake at 65 min ([2]; blood, 10 uCi, blood uptake, tumor volume 300-700 mm^3) was 0.33 ± 0.14 %ID/g and the tissue uptake at 65 min ([2]; blood, 10 uCi, blood uptake, tumor volume <300 mm^3) was 0.27 ± 0.19 %ID/g. It also gave a tissue uptake at 65 min ([2]; blood, 10 uCi, blood uptake, tumor volume >700 mm^3) of 0.57 ± 0.12 %ID/g, a tissue uptake at 65 min ([2]; bone, 10 uCi (370 kBq), bone uptake, tumor volume 300-700 mm^3) of 0.46 ± 0.22 %ID/g and a tissue uptake at 65 min ([2]; bone, 10 uCi (370 kBq), bone uptake, tumor volume <300 mm^3) of 0.29 ± 0.22 %ID/g. The tissue uptake at 65 min ([2]; bone, 10 uCi (370 kBq), bone uptake, tumor volume >700 mm^3) was 0.53 ± 0.24 %ID/g, the tissue uptake at 65 min ([2]; brain, 10 uCi (370 kBq), brain uptake, tumor volume 300-700 mm^3) was 0.06 ± 0.03 %ID/g and the tissue uptake at 65 min ([2]; brain, 10 uCi (370 kBq), brain uptake, tumor volume <300 mm^3) was 0.03 ± 0.01 %ID/g. It also gave a tissue uptake at 65 min ([2]; brain, 10 uCi (370 kBq), brain uptake, tumor volume >700 mm^3) of 0.06 ± 0.02 %ID/g, a tissue uptake at 65 min ([2]; heart, 10 uCi (370 kBq), heart uptake, tumor volume 300-700 mm^3) of 0.39 ± 0.49 %ID/g and a tissue uptake at 65 min ([2]; heart, 10 uCi (370 kBq), heart uptake, tumor volume <300 mm^3) of 0.13 ± 0.09 %ID/g. For the same compound, the tissue uptake at 65 min ([2]; heart, 10 uCi (370 kBq), heart uptake, tumor volume >700 mm^3) was 0.3 ± 0.17 %ID/g, the tissue uptake at 65 min ([2]; kidney, 10 uCi (370 kBq), kidney uptake, tumor volume 300-700 mm^3) was 4.8 ± 4.92 %ID/g and the tissue uptake at 65 min ([2]; kidney, 10 uCi (370 kBq), kidney uptake, tumor volume <300 mm^3) was 3.4 ± 0.92 %ID/g. The tissue uptake at 65 min ([2]; kidney, 10 uCi (370 kBq), kidney uptake, tumor volume >700 mm^3) was 5.98 ± 3.08 %ID/g, the tissue uptake at 65 min ([2]; large intestine, 10 uCi (370 kBq), large intestine uptake, tumor volume 300-700 mm^3) was 4.52 ± 1.31 %ID/g and the tissue uptake at 65 min ([2]; large intestine, 10 uCi (370 kBq), large intestine uptake, tumor volume <300 mm^3) was 2.06 ± 1.02 %ID/g. It also gave a tissue uptake at 65 min ([2]; large intestine, 10 uCi (370 kBq), large intestine uptake, tumor volume >700 mm^3) of 4.07 ± 1.91 %ID/g, a tissue uptake at 65 min ([2]; liver, 10 uCi (370 kBq), liver uptake, tumor volume 300-700 mm^3) of 0.4 ± 0.18 %ID/g and a tissue uptake at 65 min ([2]; liver, 10 uCi (370 kBq), liver uptake, tumor volume <300 mm^3) of 0.26 ± 0.07 %ID/g. It also gave a tissue uptake at 65 min ([2]; liver, 10 uCi (370 kBq), liver uptake, tumor volume >700 mm^3) of 0.52 ± 0.19 %ID/g, a tissue uptake at 65 min ([2]; lung, 10 uCi (370 kBq), lung uptake, tumor volume 300-700 mm^3) of 0.92 ± 0.41 %ID/g and a tissue uptake at 65 min ([2]; lung, 10 uCi (370 kBq), lung uptake, tumor volume <300 mm^3) of 0.82 ± 0.5 %ID/g. For the same compound, the tissue uptake at 65 min ([2]; lung, 10 uCi (370 kBq), lung uptake, tumor volume >700 mm^3) was 1.28 ± 0.47 %ID/g, the tissue uptake at 65 min ([2]; muscle, 10 uCi (370 kBq), muscle uptake, tumor volume 300-700 mm^3) was 0.22 ± 0.1 %ID/g and the tissue uptake at 65 min ([2]; muscle, 10 uCi (370 kBq), muscle uptake, tumor volume <300 mm^3) was 0.23 ± 0.12 %ID/g. It also gave a tissue uptake at 65 min ([2]; muscle, 10 uCi (370 kBq), muscle uptake, tumor volume >700 mm^3) of 0.48 ± 0.34 %ID/g, a tissue uptake at 65 min ([2]; pancreas, 10 uCi (370 kBq), pancreas uptake, tumor volume 300-700 mm^3) of 40.1 ± 11.5 %ID/g and a tissue uptake at 65 min ([2]; pancreas, 10 uCi (370 kBq), pancreas uptake, tumor volume <300 mm^3) of 30 ± 12.5 %ID/g. It also gave a tissue uptake at 65 min ([2]; pancreas, 10 uCi (370 kBq), pancreas uptake, tumor volume >700 mm^3) of 37.2 ± 7.29 %ID/g, a tissue uptake at 65 min ([2]; small intestine, 10 uCi (370 kBq), small intestine uptake, tumor volume 300-700 mm^3) of 3.74 ± 1.15 %ID/g and a tissue uptake at 65 min ([2]; small intestine, 10 uCi (370 kBq), small intestine uptake, tumor volume <300 mm^3) of 2.97 ± 0.66 %ID/g. The tissue uptake at 65 min ([2]; small intestine, 10 uCi (370 kBq), small intestine uptake, tumor volume >700 mm^3) was 3.8 ± 1.46 %ID/g, the tissue uptake at 65 min ([2]; spleen, 10 uCi (370 kBq), spleen uptake, tumor volume 300-700 mm^3) was 2.02 ± 3.14 %ID/g and the tissue uptake at 65 min ([2]; spleen, 10 uCi (370 kBq), spleen uptake, tumor volume <300 mm^3) was 1.77 ± 1.19 %ID/g. The tissue uptake at 65 min ([2]; spleen, 10 uCi (370 kBq), spleen uptake, tumor volume >700 mm^3) was 2.91 ± 4.89 %ID/g, the tissue uptake at 65 min ([2]; stomach, 10 uCi (370 kBq), stomach uptake, tumor volume 300-700 mm^3) was 1.59 ± 0.9 %ID/g and the tissue uptake at 65 min ([2]; stomach, 10 uCi (370 kBq), stomach uptake, tumor volume <300 mm^3) was 1.07 ± 0.53 %ID/g. For the same compound, the tissue uptake at 65 min ([2]; stomach, 10 uCi (370 kBq), stomach uptake, tumor volume >700 mm^3) was 1.46 ± 0.62 %ID/g, the tissue uptake at 65 min ([2]; tumor, 10 uCi, tumor uptake, tumor volume 300-700 mm^3) was 8.55 ± 2.65 %ID/g and the tissue uptake at 65 min ([2]; tumor, 10 uCi, tumor uptake, tumor volume <300 mm^3) was 8.07 ± 3.23 %ID/g. For the same compound, the tissue uptake at 65 min ([2]; tumor, 10 uCi, tumor uptake, tumor volume >700 mm^3) was 11.1 ± 2.88 %ID/g, the dose excreted at 65 min ([2]; 10 uCi, tumor volume 300-700 mm^3) was 67.2 ± 8.53% and the dose excreted at 65 min ([2]; 10 uCi, tumor volume <300 mm^3) was 60.8 ± 29.3%. For the same compound, the dose excreted at 65 min ([2]; 10 uCi, tumor volume >700 mm^3) was 60.2 ± 10.8%.
